Results from US20260184766A1 (priority 2022, published 2026).

Columns and labels:
[1] = test system: SARS CoV-2 "South African" B.1.351 variant Spike protein
[2] = test system: pseudotyped virus carrying B.1.351 or "SA" variant (beta lineage) spike; type: cell-based, SARS-CoV-2; settings: read-out: Virus Neutralization Pseudovirus (nM) Beta

DYTCPDGYEHTCGCIGGCGCKRSACIGALCCQASLGGWLSDMP [G3-C]
stability conferred to the knob sequence by N- and C-terminal residues, in words [1]: improved stability

LVTCPDGYEHTCGCIGGCGCKRSACIGALCCQASLGGWLSDIP [G3-G]
stability conferred to the knob sequence by N- and C-terminal residues, in words [1]: improved stability

TCPDGYEHTCGCIGGCGCKRSACIGALCCQASLGGWLSD [2G3 Knob]
EC50 [2]: 15.7 ± 2.61 nM

GMTCPDGYEHTCGCIGGCGCKRSACIGALCCQASLGGWLSDRS [G3-Z]
stability conferred to the knob sequence by N- and C-terminal residues, in words [1]: improved stability

SVTCPDGYEHTCGCIGGCGCKRSACIGALCCQASLGGWLSDYI [G3-E]
stability conferred to the knob sequence by N- and C-terminal residues, in words [1]: improved stability

ISTCPDGYEHTCGCIGGCGCKRSACIGALCCQASLGGWLSDTV [2G3 knob ISTV]
EC50 [2]: 20.9 ± 7.95 nM | stability conferred to the knob sequence by N- and C-terminal residues, in words [1]: improved stability

HWTCPDGYEHTCGCIGGCGCKRSACIGALCCQASLGGWLSDSF [2G3 knob HWSF]
EC50 [2]: 7.82 ± 1.59 nM | stability conferred to the knob sequence by N- and C-terminal residues, in words [1]: improved stability
